Laboratory results published in patent publication US11472855, “RNA-binding protein” (Panitch Schwarze Belisario & Nadel LLP).
Changes are numbered by the printed parent chain.

How the values were obtained:
Conditions in all cases: label: Alexa680 at 5' and 3'
[1] = molecular target: T1, hPUF_MT(1-2-5-6-5-6-5-6-7-8) / (R5:A_13R)3(R6:U_13Y)3; assay: EMSA; Example 2-5 reported comparable to WT
T1 chain: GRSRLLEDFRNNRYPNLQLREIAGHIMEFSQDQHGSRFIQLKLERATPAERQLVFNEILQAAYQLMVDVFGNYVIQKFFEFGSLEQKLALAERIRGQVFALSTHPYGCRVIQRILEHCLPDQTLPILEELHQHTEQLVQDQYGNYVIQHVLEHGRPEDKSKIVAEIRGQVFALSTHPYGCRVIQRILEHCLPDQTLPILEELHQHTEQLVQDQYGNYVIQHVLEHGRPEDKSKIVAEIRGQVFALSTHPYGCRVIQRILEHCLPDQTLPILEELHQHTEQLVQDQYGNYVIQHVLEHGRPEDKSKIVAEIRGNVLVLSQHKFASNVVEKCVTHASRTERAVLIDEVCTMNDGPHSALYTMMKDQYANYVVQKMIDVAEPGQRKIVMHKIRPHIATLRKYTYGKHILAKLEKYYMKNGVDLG

[2] = molecular target: T2, hPUF_MT(R5:A_13R)(R5:A_13Y)2(R6:U_13Y)3; assay: EMSA; equivalent
T2 chain: T1 chain with R181Y, R253Y

hPUF_MT(R3→R5, R4→R6) = molecular target: T3, hPUF_MT(R3→R5, R4→R6); assay: EMSA; binds U exclusively at R8 position
T3 chain: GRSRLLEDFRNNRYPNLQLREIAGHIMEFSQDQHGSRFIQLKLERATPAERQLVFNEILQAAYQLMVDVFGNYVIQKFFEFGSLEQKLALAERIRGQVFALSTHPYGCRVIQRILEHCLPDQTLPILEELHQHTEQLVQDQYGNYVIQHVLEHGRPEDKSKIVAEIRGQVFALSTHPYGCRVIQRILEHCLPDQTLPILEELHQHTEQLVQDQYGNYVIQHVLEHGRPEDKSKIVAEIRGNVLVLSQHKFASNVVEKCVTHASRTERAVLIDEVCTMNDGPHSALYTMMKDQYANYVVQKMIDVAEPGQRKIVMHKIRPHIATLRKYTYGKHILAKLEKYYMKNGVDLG

[3] = molecular target: T4, hPUF_MT(R8_N12S,Q16R, R3→R5, R4→R6) (R8 repeat N12S,Q16R); assay: EMSA; C>>G
T4 chain: T3 chain with N295S, Q299R

B1: OTS-1844 (ssRNA)
RNA: CCAGAAUUGUAUAUAUAUUCG
binding signal [1]: ~10 fold of WT | binding signal [2]: ~1 fold of 13R protein

B2: OTS-2035 (ssRNA)
RNA: CCAGAAUCGUAUAUAUUCG
binding result (hPUF_MT(R3→R5, R4→R6)): no binding | binding result [3]: binds
